Series [1] can be described thus: Specific activity towards syringaldazine. Format: biochemical. Particulars: 25 mM MES buffer, pH 5.5. The protocol:
(§1) Specific activities of the purified T. arenaria and C. thermophilum laccases were determined towards different laccase substrates.

The nature of series [2]: Specific activity towards di-methoxy-phenol (DMP). Format: biochemical. As to conditions: 25 mM MES buffer, pH 5.5. As for the experimental part: as §1
Series [3] can be described thus: Specific activity towards guaiacol. Particulars: 25 mM MES buffer, pH 5.5. Format: biochemical. As for the experimental part:
as §1

Series [4] in a line: Specific activity towards ABTS. Format: biochemical. Particulars: 25 mM succinate buffer pH 4.5, 25° C. As for the experimental part: The activity assay was carried out in accordance with the method developed by Niku-Paavola et al. (1988). The sample was diluted with 0.025 M succinate buffer, pH 4.5. […] The activity is expressed as nano katals.
as §1

Series [5] is described as follows: Isoelectric focusing (pI). Particulars: pH range 3-9. Format: physicochemical. As for the experimental part:
Molecular weight of the T. arenaria and C. thermophilum laccases were determined on SDS-PAGE according to Laemmli (1970) The gels used in the SDS-PAGE analysis were ready-made 12% Tris HCl gels (BioRad). Protein bands were visualized by staining with Coomassie Brilliant Blue (R 350; Pharmacia) and compared with molecular weight markers (Prestained Protein Marker Broad Range #7708S; New England BioLabs, Beverly, Mass.). The molecular weight of the both laccases was approximately 80 kDa. The isoelectric point of the laccases was determined with isoelectric focusing within the pH range of 3-9 (Pharmalyte IEF, Pharmacia) on a LKB 2117 Multiphor II Electrophoresis System (LKB Pharmacia, Bromma, Sweden) according to the manufacturer's instructions.
The purified recombinant Thielavia and Chaetomium laccases were characterized in terms of pH optimum, thermal stability, and pI as described in Example 2. The molecular weight was determined by MALDI-TOF mass spectrometry on a Ultraflex™ time-of-flight instrument (BrukerDaltonics, Germany) as previously described (Palonen et al., 2003). The redox-potentials of the T1 coppers of for CtLcc, and TaLcc2 laccases were determined by photometric copper titration in 0.1 M KH2PO4 (pH 6.0) as described by Xu et al. (1996) using the redox titrant couple K3Fe(CN)6/K4Fe(CN)6. The redox potential of TaLcc1 was determined with a combined Pt—AgCl/KCl microelectrode at pH 5.0 according to Sigoillot et al (2004). The characterization results are collected to Table 14.

B1: MaL: well-known fungal laccase from Melanocarpus albomyces (protein, UniProt Q70KY3 51-609, looked up)
Laccase-1: EPTCNTPSNRACWSDGFDINTDYEVSTPDTGVTQSYVFNLTEVDNWMGPDGVVKEKVMLINGNIMGPNIVANWGDTVEVTVINNLVTNGTSIHWHGIHQKDTNLHDGANGVTECPIPPKGGQRTYRWRARQYGTSWYHSHFSAQYGNGVVGTIQINGPASLPYDIDLGVFPITDYYYRAADDLVHFTQNNAPPFSDNVLINGTAVNPNTGEGQYANVTLTPGKRHRLRILNTSTENHFQVSLVNHTMTVIAADMVPVNAMTVDSLFLAVGQRYDVVIDASRAPDNYWFNVTFGGQAACGGSLNPHPAAIFHYAGAPGGLPTDEGTPPVDHQCLDTLDVRPVVPRSVPVNSFVKRPDNTLPVALDLTGTPLFVWKVNGSDINVDWGKPIIDYILTGNTSYPVSDNIVQVDAVDQWTYWLIENDPEGPFSLPHPMHLHGHDFLVLGRSPDVPAASQQRFVFDPAVDLARLNGDNPPRRDTTMLPAGGWLLLAFRTDNPGAWLFHCHIAWHVSGGLSVDFLERPADLRQRISQEDEDDFNRVCDEWRAYWPTNPYPKIDSGL
On to B1, for which the “Specific activity on syringaldazin” value in series [1] was 380 nkat/mg. In addition, the “Specific activity on DMP” value in series [2] was 290 nkat/mg. In addition, the “Specific activity on guaiacol” value in series [3] is reported as 90 nkat/mg. For the same molecule, in series [4], the “Specific activity on ABTS” value amounted to 840 nkat/mg.

B2: TaLcc3: Thielavia arenaria ALKO 4197 laccase, SEQ ID NO: 43, produced in Trichoderma reesei (protein)
chain: MVCLQYQLTAACFAVLAVVTTPASCSPVQPSPVHDLLPRQTIIPGGKPCGQNNATNRGCWKNNWNITTDYEVDTPPAFNTRVYDLHITNVTNWLGPDGVRKPAMLINGSFPGPTISADWGDYIIVNVHNDMQDNGTSIHWHGIRQLGESNQDGANGVTECPIPPGSSKTYDFHVTQYGTSWYHSHYSNQYGNGVVGALIVRGPASANYDIDLGPYLISDYYYETADRLHLRAELVSNGPPPDSDNILFRGKNINPKRAGSGSYDRLVLTPGKKHLIRLINASVDNSFVISLVGHNFTVISTDMVPITPVVRSSLFMGVGQRYDVIVEANQPVGNYWLNATLEAQNNCGHSVNPFPAAIVQYEGASSTALPTNRGTPLTATCNGEKGFSPIVKRTVSSSLFQPSTLPVSLEFPTTDRGQVFEWRVKNTPISVEWEHPVLEYILQGNTSFPAKANLIEVPQANVWTFWVIQNGFGLPHPIHLHGHDFLVLGVGNGTFDAASMRGLLNFNNPVRRDVEQMPGNGWLVIAFKTDNPGCWLMHCHIGWHVAMGLGIQFLERRSDILALMKLDQMVPNCEAWRAYARTSPYLPKLDSGLKRGVEMREGMEPAVRRIG
modifications: Thielavia arenaria ALKO4197; (1)..(611) Deduced amino acid sequence of Thielavia arenaria LAKO4197 TaLcc3
As for B2, in series [1], the “Specific activity on syringaldazin” value came to 3.6 nkat/mg. For the same molecule, the “Specific activity on DMP” value in series [2] is 2.1 nkat/mg. For the same molecule, in series [3], the “Specific activity on guaiacol” value was 0 nkat/mg. Besides, the “Specific activity on ABTS” value in series [4] amounted to 8.3 nkat/mg. Moreover, the pI in series [5] is on record as 7.0-8.0.

These data come from patent US7732178B2, “Laccase enzymes and their uses” (AB Enzymes Oy, priority 2004, dated 2010).
